Source: US20240124586A1 (WUXI BIOLOGICS IRELAND, published 2024)
One block for each binder: values may come before it.

Tests used:
[1] = molecular target: T1, human PD-1 ECD mouse Fc fusion (W305-hPro1.ECD.mFc) (human, UniProt Q15116 25-170); experiment: dual binding ELISA, PD-1 ECD.mFc coated, detection with biotinylated CTLA-4 ECD.hFc; first antibody named, first value; PD-1 coated, biotinylated CTLA-4 detection
T1 construct: extracellular domain; In-house protein; also called hPD-1-ECD; human PD-1 coated on the plate
Procedure: (§1) In order to test whether the bispecific antibodies could bind to both hPD-1 and hCTLA-4, an ELISA assay was developed as below. A 96-well ELISA plate (Nunc MaxiSorp, ThermoFisher) was coated overnight at 4° C. with 0.5 μg/ml antigen-1 (hPD-1-ECD, W305-hPro1.ECD.mFc) in carbonate-bicarbonate buffer. After a 1 hour blocking step with 2% (w/v) bovine serum albumin (Pierce) dissolved in PBS, serial dilutions of the different PD-1×CTLA-4 bispecific antibodies in PBS containing 2% BSA PBS were incubated on the plates for 1 hour at room temperature. Following the incubation, plates were washed three times with 300 μL per well of PBS containing 0.5% (v/v) Tween 20. […] After washing the plates three times, Streptavidin-HRP (Lifetechnologies, #SNN1004) (1:20000 diluted) was added and incubated on the plates for 1 hour at room temperature. After washing six times with […] per well of PBS containing 0.5% (v/v) Tween 20, 100 μL tetramethylbenzidine (TMB) substrate was added for the detection per well. The reaction was stopped after approximately 5 minutes through the addition of […] per well of 2 M HCl. The absorbance of the wells was measured at 450 nm with a multiwall plate reader (SpectraMax® M5e).

[2] = molecular target: T2, cynomolgus CD19 on CHO-K1 cells (WBP701.CHO-K1.cpro1.FL.C9) (cynomolgus monkey, UniProt A0A2K5W8L9 20-557); experiment: flow cytometry on cynomolgus CD19 CHO-K1 cells
T2 construct: whole, on cells; also called cynomolgus-CD19 expressing cell; WBP701.CHOK1.cPro1.C9
T2 sequence: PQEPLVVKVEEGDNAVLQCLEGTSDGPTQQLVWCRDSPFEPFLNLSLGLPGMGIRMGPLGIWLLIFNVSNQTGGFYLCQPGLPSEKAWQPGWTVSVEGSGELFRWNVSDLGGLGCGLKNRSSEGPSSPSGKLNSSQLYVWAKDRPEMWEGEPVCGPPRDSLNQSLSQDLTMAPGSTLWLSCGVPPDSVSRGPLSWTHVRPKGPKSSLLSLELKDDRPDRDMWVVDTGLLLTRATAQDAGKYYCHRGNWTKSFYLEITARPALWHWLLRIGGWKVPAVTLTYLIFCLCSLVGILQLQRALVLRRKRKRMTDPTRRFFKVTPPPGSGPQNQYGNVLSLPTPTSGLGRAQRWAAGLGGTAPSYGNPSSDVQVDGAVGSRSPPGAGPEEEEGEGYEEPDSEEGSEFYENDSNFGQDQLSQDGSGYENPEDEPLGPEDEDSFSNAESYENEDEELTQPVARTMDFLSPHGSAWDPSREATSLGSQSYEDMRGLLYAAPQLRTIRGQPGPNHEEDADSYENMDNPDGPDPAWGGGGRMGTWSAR
Procedure: Binding of the CD3×CD19 bispecific antibody to Cynomolgus CD19 target protein expressed on CHOK1 cells was determined by flow cytometry analysis. In brief, cynomolgus CD19 over-expressed stable cell line (WBP701.CHOK1.cPro1.C9, WuXi Biologics) were harvested with trypsin and diluted to 1×10⁶ cells/ml in 1% BSA/1×PBS. […] Antibodies serially diluted in 1% BSA/1×PBS were added at 100 ul/well to the pelleted cells and incubated at 4° C. for 1 hour. […] Cells were washed two times with 180 ul/well of 1% BSA/1×PBS by centrifugation at 1500 rpm for 5 minutes at 4° C. […] Cells were then washed two times as described above. After the final wash, cells were resuspended in 80 ul 1% BSA/1×PBS and fluorescence values were measured with a FACS Canto II cytometer (BD Biosciences). The amount of cell surface bound anti-CD19&CD3 bispecific antibody was assessed by measuring the mean fluorescence (MFI). The FACS raw data were analyzed by FlowJo software, wells containing no antibody or secondary antibody only were used to establish background fluorescence. Binding EC50 values were obtained by the four-parameter non-linear regression analysis using GraphPad Prism 5 software.

[3] = molecular target: T3, FcγRIIb (UniProt P31994 46-217, limits assumed); experiment: SPR (Biacore), receptor captured on anti-his chip, steady state model
T3 sequence (looked up): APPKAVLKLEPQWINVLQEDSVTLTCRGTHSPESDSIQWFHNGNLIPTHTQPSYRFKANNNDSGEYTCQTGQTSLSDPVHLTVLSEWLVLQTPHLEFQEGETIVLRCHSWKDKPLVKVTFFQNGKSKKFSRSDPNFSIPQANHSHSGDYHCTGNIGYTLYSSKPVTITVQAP
Procedure: (§2) Antibody binding affinity to FcγRs was detected using Biacore T200 (or Biacore 8K). Each receptor was captured on an anti-his antibody immobilized CM5 sensor chip (GE). Antibodies at different concentrations were injected over the sensor chip at a flow rate of 30 uL/min for an association phase of 60 s, followed by 60 s dissociation. The chip was then regenerated by 10 mM glycine (pH 1.5) after each binding cycle.
(§3) The sensorgrams of blank surface and buffer channel were subtracted from the test sensorgrams. The experimental data was fitted by 1:1 model using Langmiur analysis (for FcγRI) or steady state model (for other receptors). A molecular weight of 150 KDa was used to calculate the molar concentration of antibodies.

[4] = molecular target: FcγRIIIa (V176) (UniProt P08637 17-208); experiment: as above
Procedure: as §2, §3

[5] = molecular target: T4, FcγRIIa (R167) (UniProt P12318 36-218, limits assumed); experiment: as above
T4 sequence (looked up): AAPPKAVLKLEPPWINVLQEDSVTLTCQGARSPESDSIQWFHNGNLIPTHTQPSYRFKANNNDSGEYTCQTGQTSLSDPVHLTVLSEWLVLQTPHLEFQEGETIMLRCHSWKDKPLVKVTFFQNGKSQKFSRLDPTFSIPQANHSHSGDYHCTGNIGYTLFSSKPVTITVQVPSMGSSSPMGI
Procedure: as §2, §3

[6] = molecular target: T5, FcγRI (UniProt P12314 16-288, limits assumed); experiment: SPR (Biacore), receptor captured on anti-his chip, 1:1 model
T5 construct: His-tagged by the capture method
Procedure: as §2, §3

[7] = molecular target: T1, human PD-1 ECD mouse Fc fusion …; experiment: dual binding ELISA, PD-1 ECD.mFc coated, detection with biotinylated CTLA-4 ECD.hFc; second antibody named, second value; PD-1 coated, biotinylated CTLA-4 detection
Procedure: as §1

[8] = molecular target: cynomolgus CTLA-4 protein (cynomolgus, UniProt G7PL88 36-161, Probably biotinylated for streptavidin-PE detection, as described for the human CTLA-4 reagent in paragraph 775; the letters cannot carry this.); experiment: FACS competition: blocks cynomolgus CTLA-4 protein binding to human CD80 engineered cells
Procedure: Competitive FACS was used to test whether the antibodies could block human or cynomolgus CTLA-4 binding to hCD80 on cell surface. […] Then the mixtures of antibody and CTLA-4 were added to the cells and incubated for 1 hour at 4° C. The cells were washed two times with 200 μl FACS washing buffer (DPBS containing 1% BSA). Streptavidin PE (BD Pharmingen-554061) 1 to 600 diluted in FACS buffer was added to the cells and incubated at 4° C. for 1 hour. Additional washing steps were performed two times with 200 μL FACS washing buffer followed by centrifugation at 1500 rpm for 4 minutes at 4° C. Finally, the cells were resuspended in 100 μL FACS washing buffer and fluorescence values were measured by flow cytometry and analyzed by FlowJo.

T1 sequence (Q15116 25-170): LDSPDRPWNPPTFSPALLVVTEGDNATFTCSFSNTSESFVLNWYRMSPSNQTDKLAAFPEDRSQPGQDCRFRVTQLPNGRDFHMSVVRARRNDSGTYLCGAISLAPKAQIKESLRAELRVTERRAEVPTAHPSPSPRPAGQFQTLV
T5 sequence (P12314 16-288 limits assumed): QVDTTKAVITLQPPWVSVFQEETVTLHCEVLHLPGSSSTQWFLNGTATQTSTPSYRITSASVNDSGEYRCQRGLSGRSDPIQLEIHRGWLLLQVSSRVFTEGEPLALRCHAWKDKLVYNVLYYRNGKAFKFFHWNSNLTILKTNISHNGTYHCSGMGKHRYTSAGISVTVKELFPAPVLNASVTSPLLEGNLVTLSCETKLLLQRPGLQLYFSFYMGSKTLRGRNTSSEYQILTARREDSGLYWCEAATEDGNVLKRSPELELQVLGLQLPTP
Chain of cynomolgus CTLA-4 protein (G7PL88 entry or part of it limits assumed): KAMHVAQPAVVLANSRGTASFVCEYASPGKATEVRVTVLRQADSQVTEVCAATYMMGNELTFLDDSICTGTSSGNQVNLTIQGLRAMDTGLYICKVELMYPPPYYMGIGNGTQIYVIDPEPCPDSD
Chain of FcγRIIIa (V176) (P08637 17-208 F176V limits assumed): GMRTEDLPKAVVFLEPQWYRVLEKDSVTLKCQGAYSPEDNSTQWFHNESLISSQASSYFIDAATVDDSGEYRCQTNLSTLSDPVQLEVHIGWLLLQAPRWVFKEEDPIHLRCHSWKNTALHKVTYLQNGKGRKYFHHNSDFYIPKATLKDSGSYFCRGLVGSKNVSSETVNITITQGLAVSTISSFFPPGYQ

- EC50 [1]: 0.107 nM
B1: W3248-U6T1.G25R-1.uIgG4.SP, bispecific anti-PD-1 x CTLA-4 (bispecific antibody)
heavy: EVQLLESGGGLVQPGGSLRLSCAASGFTFSSHAMSWVRQAPGKGLEWVSTITGGGGSIYYADSVKGRFTISRDNSKNTLYLQMNSLRAEDTAVYYCAKNRAGEGYFDYWGQGTLVTVSSASTKGPSVFPLAPCSRSTSESTAALGCLVKDYFPEPVTVSWNSGALTSGVHTFPAVLQSSGLYSLSSVVTVPSSSLGTKTYTCNVDHKPSNTKVDKRVGGGGSGGGGSQVQLVESGGGVVQPGRSLRLSCAASGFTFSSYTMHWVRQAPGKGLEWVTFISYDGNNKYYADSVKGRFTISRDNSKNTLYLQMNSLRAEDTAIYYCARTGWLGPFDYWGQGTLVTVLEDLKNVFPPEVAVFEPSEAEISHTQKATLVCLATGFYPDHVELSWWVNGKEVHSGVCTDPQPLKEQPALQDSRYALSSRLRVSATFWQNPRNHFRCQVQFYGLSENDEWTQDRAKPVTQIVSAEAWGRYGPPCPPCPAPEFLGGPSVFLFPPKPKDTLMISRTPEVTCVVVDVSQEDPEVQFNWYVDGVEVHNAKTKPREEQFNSTYRVVSVLTVLHQDWLNGKEYKCKVSNKGLPSSIEKTISKAKGQPREPQVYTLPPSQEEMTKNQVSLTCLVKGFYPSDIAVEWESNGQPENNYKTTPPVLDSDGSFFLYSRLTVDKSRWQEGNVFSCSVMHEALHNHYTQKSLSLSLG
light 1: SYELTQPLSVSVALGQTARITCGGDNIGNKDVHWYQQKPGQAPVLVIYRDSNRPSGIPEGFSGSNSGNTATLTISRAQAGDEADYYCQVWDSIWVFGGGTKLTVLGQPKAAPSVTLFPPSSEELQANKATLVCLISDFYPGAVTVAWKADSSPVKAGVETTTPSKQSNNKYAASSYLSLTPEQWKSHKSYSCQVTHEGSTVEKTVAPTECS
light 2: not shown
notes: IgG4 (S228P); also called U6T1.G25R.IgG4

- EC50 [2]: 26 nM
- Kd [3]: 24100 nM
- Kd [4]: 14000 nM
- Kd [5]: 15800 nM
- Kd [6]: 9.79 nM
B2: W3438-T3U4.E17-1.uIgG4.SP, bispecific anti-CD3 x CD19 (bispecific antibody)
heavy 1: QVQLVQSGAEVKKPGSSVKVSCKASGFAFTDYYIHWVRQAPGQGLEWMGWISPGNVNTKYNENFKGRVTITADKSTSTAYMELSSLRSEDTAVYYCARDGYSLYYFDYWGQGTLVTVLEDLKNVFPPEVAVFEPSEAEISHTQKATLVCLATGFYPDHVELSWWVNGKEVHSGVCTDPQPLKEQPALQDSRYALSSRLRVSATFWQNPRNHFRCQVQFYGLSENDEWTQDRAKPVTQIVSAEAWGRYGPPCPPCPAPEFLGGPSVFLFPPKPKDTLMISRTPEVTCVVVDVSQEDPEVQFNWYVDGVEVHNAKTKPREEQFNSTYRVVSVLTVLHQDWLNGKEYKCKVSNKGLPSSIEKTISKAKGQPREPQVYTLPPCQEEMTKNQVSLWCLVKGFYPSDIAVEWESNGQPENNYKTTPPVLDSDGSFFLYSRLTVDKSRWQEGNVFSCSVMHEALHNHYTQKSLSLSLGK
light 1: DIVMTQSPDSLAVSLGERATINCKSSQSLLNSRTRKNYLAWYQQKPGQPPKLLIYWASTRQSGVPDRFSGSGSGTDFTLTISSLQAEDVAVYYCTQSHTLRTFGGGTKVEIKPDIQNPDPAVYQLRDSKSSDKSVCLFTDFDSQTQVSQSKDSDVYITDKCVLDMRSMDFKSNSAVAWSQKSDFACANAFQNSIIPEDTFFPSPESS
heavy 2: QMQLVQSGPEVKKPGTSVKVSCKASGYAFTSYNMYWVRQARGQRLEWIGYIDPYNGDTTYNQKFKGRVTITRDMSTSTAYMELSSLRSEDTAVYYCLTTAYAMDYWGQGTLVTVSSASTKGPSVFPLAPCSRSTSESTAALGCLVKDYFPEPVTVSWNSGALTSGVHTFPAVLQSSGLYSLSSVVTVPSSSLGTKTYTCNVDHKPSNTKVDKRVESKYGPPCPPCPAPEFLGGPSVFLFPPKPKDTLMISRTPEVTCVVVDVSQEDPEVQFNWYVDGVEVHNAKTKPREEQFNSTYRVVSVLTVLHQDWLNGKEYKCKVSNKGLPSSIEKTISKAKGQPREPQVCTLPPSQEEMTKNQVSLSCAVKGFYPSDIAVEWESNGQPENNYKTTPPVLDSDGSFFLVSRLTVDKSRWQEGNVFSCSVMHEALHNHYTQKSLSLSLGK
light 2: DIQLTQSPSFLSASVGDRVTITCSASSTVNYMHWYQQKPGKAPKLLIYSTSNLASGVPSRFSGSGSGTEFTLTISSLQPEDFATYYCHQWSSYPYTFGQGTKLEIKRTVAAPSVFIFPPSDEQLKSGTASVVCLLNNFYPREAKVQWKVDNALQSGNSQESVTEQDSKDSTYSLSSTLTLSKADYEKHKVYACEVTHQGLSSPVTKSFNRGEC
notes: also called E17-Design_2-QQQQ (IgG4); E17-IgG4; copies: 1 + 1 + 1 + 1

- EC50 [7]: 0.071 nM
- IC50 [8]: 2.14 nM
B3: W3248-U6T5.G25-1.uIgG4.SP, bispecific anti-PD-1 x CTLA-4 (bispecific antibody)
heavy: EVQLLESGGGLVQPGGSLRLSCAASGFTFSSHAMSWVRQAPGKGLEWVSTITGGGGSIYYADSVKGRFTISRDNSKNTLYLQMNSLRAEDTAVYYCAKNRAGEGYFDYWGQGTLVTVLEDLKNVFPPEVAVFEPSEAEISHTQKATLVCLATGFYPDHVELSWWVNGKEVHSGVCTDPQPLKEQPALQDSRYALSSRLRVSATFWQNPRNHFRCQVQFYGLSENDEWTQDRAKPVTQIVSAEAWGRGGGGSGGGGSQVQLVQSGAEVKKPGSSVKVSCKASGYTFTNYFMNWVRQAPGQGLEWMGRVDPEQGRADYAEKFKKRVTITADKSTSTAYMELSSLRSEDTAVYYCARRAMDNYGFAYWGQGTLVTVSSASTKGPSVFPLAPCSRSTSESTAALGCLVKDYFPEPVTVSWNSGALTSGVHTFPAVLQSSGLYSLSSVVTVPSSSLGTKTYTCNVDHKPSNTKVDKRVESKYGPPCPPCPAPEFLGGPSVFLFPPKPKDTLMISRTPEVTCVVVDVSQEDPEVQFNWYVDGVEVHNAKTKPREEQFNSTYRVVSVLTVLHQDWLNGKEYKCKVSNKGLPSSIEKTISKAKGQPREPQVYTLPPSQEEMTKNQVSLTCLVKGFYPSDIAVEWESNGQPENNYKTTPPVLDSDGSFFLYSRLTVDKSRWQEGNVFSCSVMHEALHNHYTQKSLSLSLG
light 1: SYELTQPLSVSVALGQTARITCGGDNIGNKDVHWYQQKPGQAPVLVIYRDSNRPSGIPEGFSGSNSGNTATLTISRAQAGDEADYYCQVWDSIWVFGGGTKLTVLPDIQNPDPAVYQLRDSKSSDKSVCLFTDFDSQTQVSQSKDSDVYITDKCVLDMRSMDFKSNSAVAWSQKSDFACANAFQNSIIPEDTFFPSPESS
light 2: EIVLTQSPDFQSVTPKEKVTITCSANSALSYMYWYQQKPDQSPKLWVHGTSNLASGVPSRFSGSGSGTDFTLTINSLEAEDAATYYCHHWSNTQWTFGGGTKVEIKRTVAAPSVFIFPPSDEQLKSGTASVVCLLNNFYPREAKVQWKVDNALQSGNSQESVTEQDSKDSTYSLSSTLTLSKADYEKHKVYACEVTHQGLSSPVTKSFNRGEC
notes: IgG4 (S228P); also called WBP3248-U6T5.G25-1-uIgG4.SP; U6T5.G25.IgG4
